Data taken from patent US20140037648A1.

Experiments:
[1] = target: stabilized form of the full-length pre-fusion RSV F protein (RSV); test: surface plasmon resonance
[2] = target: F protein of RSV Randall (A, Chicago US, 1958; A/Randall/58) (RSV (strain Randall)); test: cell-based or functional assay
[3] = target: F protein of RSV 9847/2009 (B, Pavia IT, 2009; B/9847/09) (RSV (9847/2009)); test: cell-based or functional assay
[4] = target: F protein of RSV 9736/2009 (B, Pavia IT, 2009; B/9736/09) (RSV (9736/2009)); test: cell-based or functional assay
[5] = target: F protein of RSV 9727/2009 (B, Pavia IT, 2009; B/9727/09) (RSV (9727/2009)); test: cell-based or functional assay
[6] = target: F protein of RSV A/9835/09 (RSV (A/9835/09)); test: cell-based or functional assay
[7] = target: F protein of MPV I-PV-03/01-6621 (A1, Pavia IT, 2001; A1/6621/01) (MPV (I-PV-03/01-6621)); test: cell-based or functional assay
[8] = target: F protein of RSV A/9846/09 (RSV (A/9846/09)); test: cell-based or functional assay

Substance: Palivizumab (antibody)
- Kd [1]: 2 nM
- Neutralization IC50 [2]: 0.44 µg/mL
- Neutralization IC50 [3]: 0.209 µg/mL
- Neutralization IC50 [4]: 0.092 µg/mL
- Neutralization IC50 [5]: 0.275 µg/mL
- Neutralization IC50 [6]: 0.284 µg/mL
- IC50 (ng/ml), microneutralization [7]: > 20000 ng/mL
- Neutralization IC50 [8]: 0.283 µg/mL
